{"source": "paper doi:10.1101/2024.08.23.608890", "about": "(bioRxiv, 2024)", "binders": {"B1": {"name": "B4, ProteinMPNN-optimized de novo designed TcsL-binding miniprotein (designed binder)", "chain": "MSGTEEIIKEIKKMKEKGEKASSIIDLLKKAGYSEIAKKAELAALKSENMTEAAAEKAIEELK"}}, "target": "T1, Paeniclostridium sordellii lethal toxin TcsL, receptor binding domain (RBD) (Paeniclostridium sordellii, UniProt Q46342)", "T1 sequence": "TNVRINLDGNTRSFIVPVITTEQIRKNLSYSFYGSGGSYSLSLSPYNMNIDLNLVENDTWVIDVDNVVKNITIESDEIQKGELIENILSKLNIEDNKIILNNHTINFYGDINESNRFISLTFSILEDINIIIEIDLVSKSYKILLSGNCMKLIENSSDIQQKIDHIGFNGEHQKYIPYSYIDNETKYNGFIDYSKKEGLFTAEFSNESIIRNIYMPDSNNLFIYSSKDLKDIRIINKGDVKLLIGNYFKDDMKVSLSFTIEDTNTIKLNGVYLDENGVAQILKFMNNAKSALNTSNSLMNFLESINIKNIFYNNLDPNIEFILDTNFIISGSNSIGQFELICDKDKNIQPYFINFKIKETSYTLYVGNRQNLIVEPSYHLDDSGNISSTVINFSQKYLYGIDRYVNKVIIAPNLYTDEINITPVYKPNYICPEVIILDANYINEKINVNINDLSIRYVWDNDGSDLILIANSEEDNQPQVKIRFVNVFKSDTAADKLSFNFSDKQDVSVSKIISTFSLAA", "assay": "SPR", "data": [{"binder": "B1", "values": [{"measurement": "Kd", "result": 0.057, "unit": "nM"}]}]}
